From paper PMC4342030 (Molecular Biology of the Cell, 2015)

How the values were obtained:
GFP-Rab31 = target: T1, GFP-Rab31 (mouse, UniProt Q921E2 1-195); assay: co-IP
T1 sequence (looked up): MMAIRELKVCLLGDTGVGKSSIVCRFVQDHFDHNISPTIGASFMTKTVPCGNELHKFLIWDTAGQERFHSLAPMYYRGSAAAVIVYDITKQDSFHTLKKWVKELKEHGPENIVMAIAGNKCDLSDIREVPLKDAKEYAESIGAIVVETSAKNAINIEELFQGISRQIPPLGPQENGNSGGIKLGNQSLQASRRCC

[1] = target: T2, purified APPL2 after cleavage of GST (mouse, UniProt Q8K3G9 1-662); assay: pull-down
T2 sequence (looked up): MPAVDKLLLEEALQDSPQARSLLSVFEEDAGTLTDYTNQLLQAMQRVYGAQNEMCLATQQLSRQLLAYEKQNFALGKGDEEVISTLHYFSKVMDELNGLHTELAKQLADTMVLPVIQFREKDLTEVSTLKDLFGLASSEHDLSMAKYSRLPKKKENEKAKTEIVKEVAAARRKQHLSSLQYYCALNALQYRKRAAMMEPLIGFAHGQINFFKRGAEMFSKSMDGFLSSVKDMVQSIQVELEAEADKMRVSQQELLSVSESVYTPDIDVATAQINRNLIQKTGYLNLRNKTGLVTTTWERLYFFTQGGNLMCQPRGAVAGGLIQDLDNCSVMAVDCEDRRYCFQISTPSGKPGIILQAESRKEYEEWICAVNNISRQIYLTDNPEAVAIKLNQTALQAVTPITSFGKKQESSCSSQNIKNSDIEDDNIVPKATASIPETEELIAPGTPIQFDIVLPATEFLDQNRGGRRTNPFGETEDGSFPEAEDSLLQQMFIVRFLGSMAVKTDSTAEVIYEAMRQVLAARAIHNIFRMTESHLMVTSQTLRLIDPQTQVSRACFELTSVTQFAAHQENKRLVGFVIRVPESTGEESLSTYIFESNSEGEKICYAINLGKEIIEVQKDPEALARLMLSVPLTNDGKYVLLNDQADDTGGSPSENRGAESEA

Row | Binder | fold preference over GFP-Rab5a (GFP-Rab31) | binding result [1]
1 | APPL2 (adaptor protein, phosphotyrosine interaction, PH domain, and leucine zipper–containing 2) (natural protein, mouse (endogenous in RAW 264.7), UniProt Q8K3G9 1-662, looked up) MPAVDKLLLEEALQDSPQARSLLSVFEEDAGTLTDYTNQLLQAMQRVYGAQNEMCLATQQLSRQLLAYEKQNFALGKGDEEVISTLHYFSKVMDELNGLHTELAKQLADTMVLPVIQFREKDLTEVSTLKDLFGLASSEHDLSMAKYSRLPKKKENEKAKTEIVKEVAAARRKQHLSSLQYYCALNALQYRKRAAMMEPLIGFAHGQINFFKRGAEMFSKSMDGFLSSVKDMVQSIQVELEAEADKMRVSQQELLSVSESVYTPDIDVATAQINRNLIQKTGYLNLRNKTGLVTTTWERLYFFTQGGNLMCQPRGAVAGGLIQDLDNCSVMAVDCEDRRYCFQISTPSGKPGIILQAESRKEYEEWICAVNNISRQIYLTDNPEAVAIKLNQTALQAVTPITSFGKKQESSCSSQNIKNSDIEDDNIVPKATASIPETEELIAPGTPIQFDIVLPATEFLDQNRGGRRTNPFGETEDGSFPEAEDSLLQQMFIVRFLGSMAVKTDSTAEVIYEAMRQVLAARAIHNIFRMTESHLMVTSQTLRLIDPQTQVSRACFELTSVTQFAAHQENKRLVGFVIRVPESTGEESLSTYIFESNSEGEKICYAINLGKEIIEVQKDPEALARLMLSVPLTNDGKYVLLNDQADDTGGSPSENRGAESEA | 3 fold | 
2 | GST-Rab31 (natural protein, mouse, UniProt Q921E2 1-195, looked up) MMAIRELKVCLLGDTGVGKSSIVCRFVQDHFDHNISPTIGASFMTKTVPCGNELHKFLIWDTAGQERFHSLAPMYYRGSAAAVIVYDITKQDSFHTLKKWVKELKEHGPENIVMAIAGNKCDLSDIREVPLKDAKEYAESIGAIVVETSAKNAINIEELFQGISRQIPPLGPQENGNSGGIKLGNQSLQASRRCC |  | binds
